Data on one variant can be found in IntAct's records for PubMed 20818436.

First the molecules themselves.
B1: Zinc finger protein GLI1 (Homo sapiens), P08151 (parent)
chain: MFNSMTPPPISSYGEPCCLRPLPSQGAPSVGTEGLSGPPFCHQANLMSGPHSYGPARETNSCTEGPLFSSPRSAVKLTKKRALSISPLSDASLDLQTVIRTSPSSLVAFINSRCTSPGGSYGHLSIGTMSPSLGFPAQMNHQKGPSPSFGVQPCGPHDSARGGMIPHPQSRGPFPTCQLKSELDMLVGKCREEPLEGDMSSPNSTGIQDPLLGMLDGREDLEREEKREPESVYETDCRWDGCSQEFDSQEQLVHHINSEHIHGERKEFVCHWGGCSRELRPFKAQYMLVVHMRRHTGEKPHKCTFEGCRKSYSRLENLKTHLRSHTGEKPYMCEHEGCSKAFSNASDRAKHQNRTHSNEKPYVCKLPGCTKRYTDPSSLRKHVKTVHGPDAHVTKRHRGDGPLPRAPSISTVEPKREREGGPIREESRLTVPEGAMKPQPSPGAQSSCSSDHSPAGSAANTDSGVEMTGNAGGSTEDLSSLDEGPCIAGTGLSTLRRLENLRLDQLHQLRPIGTRGLKLPSLSHTGTTVSRRVGPPVSLERRSSSSSSISSAYTVSRRSSLASPFPPGSPPENGASSLPGLMPAQHYLLRARYASARGGGTSPTAASSLDRIGGLPMPPWRSRAEYPGYNPNAGVTRRASDPAQAADRPAPARVQRFKSLGCVHTPPTVAGGGQNFDPYLPTSVYSPQPPSITENAAMDARGLQEEPEVGTSMVGSGLNPYMDFPPTDTLGYGGPEGAAAEPYGARGPGSLPLGPGPPTNYGPNPCPQQASYPDPTQETWGEFPSHSGLYPGPKALGGTYSQCPRLEHYGQVQVKPEQGCPVGSDSTGLAPCLNAHPSEGPPHPQPLFSHYPQPSPPQYLQSGPYTQPPPDYLPSEPRPCLDFDSPTHSTGQLKAQLVCNYVQSQQELLWEGGGREDAPAQEPSYQSPKFLGGSQVSPSRAKAPVNTYGPGFGPNLPNHKSGSYPTPSPCHENFVVGANRASHRAAAPPRLLPPLPTCYGPLKVGGTNPSCGHPEVGRLGGGPALYPPPEGQVCNPLDSLDLDNTQLDFVAILDEPQGLSPPPSHDQRGSSGHTPPPSGPPNMAVGNMSVLLRSLPGETEFLNSSA

The variants in the experiment derive from B1. Conditions: with itch_human ITCH.
As for Y859F;Y872F;S1060A, the “effect of a mutation on the interaction” value is on record as “disrupting interaction”.
